Measurements reported in patent US8729012, “Controllable assembly and disassembly of nanoparticle systems via protein and DNA agents” (Brookhaven Science Associates, LLC).

Experiments:
gene 5 protein (g5p) [1] = target: T1, gene 5 protein (g5p) (bacteriophage M13, UniProt P69544 P69544:1-87); assay: EMSA; three sequential stages: anti-parallel ssDNA region shifted at 10 uM g5p, then ssDNA tail, then dsDNA over 35 uM; 1 uM DNA, 10 mM Tris-HCl pH 7.4, 200 mM NaCl; settings: tags: His-tag (pET-30b, expressed in E. coli BL21-DE3; gene from NEB M13); chain copies: 2 inferred (homodimer); 19 bp duplex, two anti-parallel T32 single strands, 3' ssDNA tail of 15 nt
T1 sequence: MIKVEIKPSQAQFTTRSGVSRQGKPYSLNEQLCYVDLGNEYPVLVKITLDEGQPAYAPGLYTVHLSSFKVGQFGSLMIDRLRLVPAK
Experimental: To study the distinct binding properties of g5p and its preferential DNA topology, an exemplary DNA structure with three distinct regions has been designed: a 19 base paired double-stranded DNA (dsDNA) region, followed by a 32 nucleotide anti-parallel poly-T ssDNA region, and a 3' extended ssDNA tail of 15 nucleotides. The DNA structure ([…]) was titrated with g5p (in 10 mM Tris-HCl, pH=7.4, 200 mM NaCl), and g5p binding was studied using the electrophoretic mobility shift assay. […] Since g5p has a much lower affinity to dsDNA than to ssDNA at high salt concentration, the following order of occupancy is hypothesized: binding to the anti-parallel ssDNA region with a large shift of the DNA band at 10 μM g5p, followed by binding to the ssDNA tail, and finally to dsDNA at g5p concentrations over 35 μM. Thus, g5p binds to ssDNA regions before it binds to the dsDNA region, and its binding affinity for the anti-parallel region is slightly higher than for the ssDNA tail. […] By comparing the intensity of the band in the presence of 30 μM g5p to the band under control conditions without g5p, the hybridization efficiency for C-ssDNA to the g5p-complexed ssDNA tail was determined to be approximately 82%, indicating effective DNA hybridization without significant inhibition by g5p. […]

gene 5 protein (g5p) [2] = target: T1, gene 5 protein (g5p); assay: EMSA; C-ssDNA added to the complex; 20 and 30 uM g5p shifts collapse to one band of higher mobility (anti-parallel region bound); tail hybridization about 82% at 30 uM g5p; settings: tags: His-tag (pET-30b, expressed in E. coli BL21-DE3; gene from NEB M13); chain copies: 2 inferred (homodimer); 19 bp duplex, anti-parallel T32 strands, tail hybridized as 15 bp duplex
Experimental: Since g5p has a much lower affinity to dsDNA than to ssDNA at high salt concentration, the following order of occupancy is hypothesized: binding to the anti-parallel ssDNA region with a large shift of the DNA band at 10 μM g5p, followed by binding to the ssDNA tail, and finally to dsDNA at g5p concentrations over 35 μM. Thus, g5p binds to ssDNA regions before it binds to the dsDNA region, and its binding affinity for the anti-parallel region is slightly higher than for the ssDNA tail. To study the effect of g5p association on forming dsDNA heteroduplexes, and confirm the proposed binding order to the ssDNA regions, an equal amount (1 μM) of C-ssDNA that can hybridize to the ssDNA tail was added. […] Smearing of the band after C-ssDNA addition at 45 μM g5p supports g5p binding to dsDNA at this concentration. […]
(§1) The DNA for the binding study was obtained by annealing of two ssDNA with sequences, 5'-GACCACATACCGCAC-CATC(T)$32$CTGCTACGAGACTTC-3' (SEQ ID NO. 7) and 5'-(T)$32$GATGGTGCGGTATGTGGTC-3' (SEQ ID NO. 8), respectively. […] Relative intensities of the DNA bands were analyzed after ethidium bromide staining Characterization UV-Visible spectra were obtained using a PerkinElmer Lambda 35 spectrometer. DLS was measured using a Malvern Zetasizer ZS instrument that is equipped with a 633 nm laser and a backscattering detector at 173°.

gene 5 protein (g5p) [3] = target: T1, gene 5 protein (g5p); assay: g5p-dependent nanoparticle assembly by DLS, UV-vis, TEM; 10 mM Tris-HCl pH 7.44, 200 mM NaCl; settings: tags: His-tag (pET-30b, expressed in E. coli BL21-DE3; gene from NEB M13); chain copies: 2 inferred (homodimer)
Experimental: (§2) The SP band is associated with isolated Au and assembled nanostructures. After adding increased g5p concentrations, the SP band at 525 nm of isolated ssDNA-Au was red-shifted with band broadening, indicative of either a decrease in interparticle distances or an increase of aggregate size (FIG. 7B). The higher extinction intensity observed over 10 μM g5p is due to a […] of the solution's turbidity resulting from the formation of larger aggregates. […] The sizes and morphologies of the g5p-mediated ssDNA-Au assemblies were studied using transmission electron microscopy (TEM) (FIG. 7C). […] Polyhistidine-tagged YieF protein (MW=20 KDa) was used as a negative control, for which no aggregation of particles was observed during DLS and UV-vis studies (FIGS. 8A and 8B).
as §1, with “respectively. The annealed DNA (1 µM) was incubated with g5p at 37° C. for 10 minutes.” for “respectively.”, “173°. […]” for “173°.”

YieF = target: T2, YieF (UniProt P0AGE6 P0AGE6:1-188); assay: negative control, no aggregation by DLS (2.5 uM) or UV-vis (15 uM); settings: tags: polyhistidine
T2 sequence: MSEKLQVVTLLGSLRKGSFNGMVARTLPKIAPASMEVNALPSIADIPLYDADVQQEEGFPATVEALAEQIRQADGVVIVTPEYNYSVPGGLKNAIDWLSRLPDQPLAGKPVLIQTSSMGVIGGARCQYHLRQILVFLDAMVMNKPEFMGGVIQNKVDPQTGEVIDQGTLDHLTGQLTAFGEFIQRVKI
Experimental: as §2
as §1, with “respectively. The annealed DNA (1 µM) was incubated with g5p at 37° C. for 10 minutes.” for “respectively.”, “173°. […]” for “173°.”

B1: annealed 19 bp dsDNA / anti-parallel poly-T32 / 15 nt ssDNA tail (structured_DNA)
DNA 1: GACCACATACCGCACCATCTTTTTTTTTTTTTTTTTTTTTTTTTTTTTTTTCTGCTACGAGACTTC
DNA 2: TTTTTTTTTTTTTTTTTTTTTTTTTTTTTTTTGATGGTGCGGTATGTGGTC
Gene 5 protein (g5p) [1]
  binding result: binds

B2: annealed DNA with tail hybridized to C-ssDNA (structured_DNA)
DNA 1: B1 DNA 1
DNA 2: B1 DNA 2
DNA 3: GAAGTCTCGTAGCAG
Gene 5 protein (g5p) [2]
  binding result: binds

## TTTTTTTTTTTTTTTTAACCTAACCTTCAT (ssDNA, 5'-HS-C3H6, about 50 copies per gold nanoparticle) [ssDNA on gold nanoparticles (ssDNA-Au)]
Gene 5 protein (g5p) [3]
  binding result: binds
YieF
  binding result: no binding
